{"source": "patent US20240398899A1", "about": "(priority 2021, published 2024)", "molecules": {"B1": {"name": "SEQ ID NO: 1: variant of the S. rolfsii lectin amino acid sequence (reported as Rec-2 in WO2010/095143) (protein)", "chain": "TYKITVRVYQTNPDAFFHPVEKTVWKYANGGTWTITDDQHVLTMGGSGTSGTLRFHADNGESFTATFGVHNYKRWCDIVTNLAADETGMVINQQYYSQKNREEARERQLSNYQVKNAKGRNFQIVYTEAEGNDLHANLIIG"}}, "key": {"[1]": {"test_system": "SH-SY5Y neuronal cells", "experiment": "Cytoprotective effect against MPP+ iodide induced damage, MTT assay", "settings": "MPP+ iodide 1 mM", "protocol": "The Human Neuronal SH-SY5Y Cells were counted using hemocytometer and plated in 96 well plate at a density of 25,000 cells/well and incubated at 37° C. for 24 h. After incubation, cells were treated with recombinant lectin protein having the sequence of SEQ ID NO: 1 at concentrations ranging from 0.001 μg/ml 50 μg/ml for 24 h. After 24 h of treatment, cells were exposed to neurotoxin (MPP+ iodide, 1 mM) for 24 h. Cells treated with MPP+ iodide alone were included as negative control. Untreated cells were included as control. […] After treatment, the cytoprotective effect of SEQ ID NO: 1 on cell viability was assessed by 3-(4,5-dimethythiazol-2-yl)-2,5-diphenyl tetrazolium bromide (MTT) assay: The plate was taken out and 20 μl of 5 mg/ml of MTT 3-(4,5-dimethythiazol-2-yl)-2,5-diphenyl tetrazolium bromide solution was added to all the wells. The SH-SY5Y cells were incubated for 3 h at 37° C. The supernatant was aspirated and 150 μl of DMSO was added to each well to dissolve formazan crystals. The absorbance of each well was read at 540 nm using Synergy HT micro plate reader. The protective effect of the SEQ ID NO: 1 on survival of SH-SY5Y cells against MPP+ iodide induced damage was determined as: The viability of cells was determined as:\nWhere, the percentage cytotoxicity corresponding to each treatment was calculated as follows:\n[formula] • X=Absorbance of cells treated with MPP+ iodide/recombinant lectin having SEQ ID NO: 1+MPP+Iodide • R=Absorbance of Control cells (Untreated) • Percentage protection was calculated as:\n[(Absorbance of SEQ ID NO:1+MPP+Iodide)−(Absorbance of MPP+Iodide)/(Absorbance of Untreated)−(Absorbance of MPP+Iodide alone)]*100"}, "[2]": {"test_system": "Brain NGF (Nerve Growth Factor)", "experiment": "Brain biomarker ELISA, scopolamine induced dementia", "type": "in vivo, Mus musculus (Swiss Albino)", "settings": "for brain nerve growth factor (NGF) Mean: scopolamine 2.5 mg/kg i.p., mice", "experimental": "After passive avoidance test screening models of memory, the animals were sacrificed humanely. The whole brain was carefully removed from the skull and weighed. Brain was dissected into two portions\n10% w/v brain homogenate (100 mg/mL) was prepared by homogenizing it in ice-chilled phosphate buffer. The homogenate was subsequently centrifuged using a refrigerated centrifuge at 3000 rpm for 10 min, and the supernatant was separated and used for the biochemical estimations.\nFollowing biomarkers was estimated using ELISA kit as per manufacturer's instruction. • Brain NGF (Nerve Growth Factor), CUSABIO, Catalog No. CSB-E04684m • Acetylcholinesterase, CUSABIO, Catalog No. CSB-E17521m • TNF alpha, CUSABIO, Catalog No. CSB-E04741m"}, "[3]": {"test_system": "Swiss albino mice", "experiment": "Passive avoidance test, scopolamine induced dementia", "type": "in vivo, Mus musculus (Swiss Albino)", "protocol": "Required amount of recombinant lectin protein having SEQ ID NO: 1 was diluted in sterile Tris Buffered Saline (TBS) to achieve desired final concentration, i.e 0.1 mg/mL, 0.05 mg/mL, 0.025 mg/mL, at the doses of 0.5 mg/kg, 0.25 mg/kg and 0.125 mg/kg respectively. Formulation was prepared fresh daily.\nTBS buffer and 0.5% CMC were used as a vehicle for preparation of test item, recombinant Lectin having SEQ ID NO: 1 and reference item formulation, respectively Male Mus musculus (Swiss Albino) aged between 8-10 weeks procured from GENTOX Bio services Pvt Ltd, Hyderabad. Animals were classified into 6 groups and acclimatized for two weeks. Animals were identified by cage labelling and tail marking and were randomized on the basis of their body weight.\nHealthy male Swiss albino mice (n=48) were selected and randomized based on body weight (n=8 per Group) into 6 groups as mentioned in table no-1. The control group G1 was treated intravenously with vehicle daily till the experiment completion. Group G2 was considered as negative control and treated with vehicle. […] Group G4, G5 &G6 animals were treated with the test item recombinant lectin protein having SEQ ID NO: 1 at the dose of 0.5 mg/kg, 0.25 mg/kg and 0.125 mg/kg, respectively. All the test items were given intravenously (i.v) daily at the dose volume of 5 ml/kg for 14 Days. The body weight was recorded daily throughout the experimental period. […] One hour after the last dose of test items (on Day 14) all the animals were injected with scopolamine hydrobromide at the dose of 2.5 mg/kg, i.p., except the normal control group G1. Passive avoidance test was conducted 30 min after scopolamine injection.\nThis learning and memory test were performed in two chambers, which has square boxes, identical size, juxtaposed as illuminated and dark. A lamp was placed above one chamber for illumination. Each test involved two separate trials, a training trial and a test trial.\nFor the training trial, the mice were initially placed in the illuminated chamber. When the mice entered the dark chamber, an electrical shock (0.5 mA) for 3 sec. was delivered through stainless steel rods. The latency times once the mice entered from light compartment to the dark compartment was recorded using in-build timer. A test trial was performed 24 h following the training trial, and latency times to re-enter the dark chamber was measured up to 5 min"}, "[4]": {"test_system": "neuronal cells (pc12)", "experiment": "Neurite formation, basal model", "type": "cell-based, rat", "protocol": "Cells were counted using haemocytometer and plated in 24-well plates at the densities corresponding to 1×10^4 cells/well/500 μl of the growth medium. The cells were then incubated for 48 h in 5% CO2 incubator at 37° C. Effect of Recombinant Lectin having SEQ ID NO: 1 on neurite formation was evaluated in both basal and MPP+ damage induced model.\nFor basal model the percent increase in neurite formation was determined as follows"}}, "note": "Values joined by “and” are separate entries in the source; they are usually repeats but may differ in a detail not shown here. Identical values can stand only once."}
{"molecule": "B1", "values": [{"measurement": "Percentage Protection", "setting": "[1]; 0.001 μg/mL", "value": 58.6, "unit": "%"}, {"measurement": "Percentage Viability (w.r.t control)", "setting": "[1]; 0.001 μg/mL", "value": 85.1, "unit": "%"}, {"measurement": "Percentage cytotoxicity", "setting": "[1]; 0.001 μg/mL", "value": 14.9, "unit": "%"}, {"measurement": "Percentage Protection", "setting": "[1]; 0.01 μg/mL", "value": 61.8, "unit": "%"}, {"measurement": "Percentage Viability (w.r.t control)", "setting": "[1]; 0.01 μg/mL", "value": 86.3, "unit": "%"}, {"measurement": "Percentage cytotoxicity", "setting": "[1]; 0.01 μg/mL", "value": 13.7, "unit": "%"}, {"measurement": "Percentage Protection", "setting": "[1]; 0.05 μg/mL", "value": 68.8, "unit": "%"}, {"measurement": "Percentage Viability (w.r.t control)", "setting": "[1]; 0.05 μg/mL", "value": 88.8, "unit": "%"}, {"measurement": "Percentage cytotoxicity", "setting": "[1]; 0.05 μg/mL", "value": 11.2, "unit": "%"}, {"measurement": "Percentage Protection", "setting": "[1]; 0.1 μg/mL", "value": 52.6, "unit": "%"}, {"measurement": "Percentage Viability (w.r.t control)", "setting": "[1]; 0.1 μg/mL", "value": 83, "unit": "%"}, {"measurement": "Percentage cytotoxicity", "setting": "[1]; 0.1 μg/mL", "value": 17, "unit": "%"}, {"measurement": "Percentage Protection", "setting": "[1]; 1 μg/mL", "value": 40.2, "unit": "%"}, {"measurement": "Percentage Viability (w.r.t control)", "setting": "[1]; 1 μg/mL", "value": 78.8, "unit": "%"}, {"measurement": "Percentage cytotoxicity", "setting": "[1]; 1 μg/mL", "value": 21.2, "unit": "%"}, {"measurement": "Percentage Protection", "setting": "[1]; 5 μg/mL", "value": 49.6, "unit": "%"}, {"measurement": "Percentage Viability (w.r.t control)", "setting": "[1]; 5 μg/mL", "value": 82.1, "unit": "%"}, {"measurement": "Percentage cytotoxicity", "setting": "[1]; 5 μg/mL", "value": 17.9, "unit": "%"}, {"measurement": "Percentage Protection", "setting": "[1]; 10 μg/mL", "value": 85.6, "unit": "%"}, {"measurement": "Percentage Viability (w.r.t control)", "setting": "[1]; 10 μg/mL", "value": 94.9, "unit": "%"}, {"measurement": "Percentage cytotoxicity", "setting": "[1]; 10 μg/mL", "value": 5.1, "unit": "%"}, {"measurement": "Percentage Protection", "setting": "[1]; 25 μg/mL", "value": 78.6, "unit": "%"}, {"measurement": "Percentage Viability (w.r.t control)", "setting": "[1]; 25 μg/mL", "value": 92.4, "unit": "%"}, {"measurement": "Percentage cytotoxicity", "setting": "[1]; 25 μg/mL", "value": 7.6, "unit": "%"}, {"measurement": "Percentage Protection", "setting": "[1]; 50 μg/mL", "value": 62.1, "unit": "%"}, {"measurement": "Percentage Viability (w.r.t control)", "setting": "[1]; 50 μg/mL", "value": 86.6, "unit": "%"}, {"measurement": "Percentage cytotoxicity", "setting": "[1]; 50 μg/mL", "value": 13.4, "unit": "%"}, {"measurement": "level of NGF (brain)", "setting": "[2]; 0.25 mg/kg, scopolamine treated mice", "value": 62, "unit": "µg/mL"}, {"measurement": "brain nerve growth factor (NGF) Mean", "setting": "[2]; G4: 0.5 mg/kg i.v. qdx14", "value": "71.6 pg/mL and 71.59 pg/mL"}, {"measurement": "brain nerve growth factor (NGF) Mean", "setting": "[2]; G5: 0.25 mg/kg i.v. qdx14", "value": 61.96, "unit": "pg/mL"}, {"measurement": "brain nerve growth factor (NGF) Mean", "setting": "[2]; G6: 0.125 mg/kg i.v. qdx14", "value": 38.62, "unit": "pg/mL"}, {"measurement": "% increase in Transfer Latency Time", "setting": "[3]; G4: 0.5 mg/kg i.v. qdx14, compared with G2 (scopolamine)", "value": 33.2, "unit": "%"}, {"measurement": "Mean Transfer Latency Time", "setting": "[3]; G4: 0.5 mg/kg i.v. qdx14, scopolamine 2.5 mg/kg i.p.", "value": 85.26, "unit": "s"}, {"measurement": "Mean Transfer Latency Time", "setting": "[3]; G4: 0.5 mg/kg i.v. qdx14, scopolamine 2.5 mg/kg i.p., listed as SEQ ID NO 1", "value": "85.26 ± 6.52", "unit": "s"}, {"measurement": "% increase in Transfer Latency Time", "setting": "[3]; G5: 0.25 mg/kg i.v. qdx14, compared with G2 (scopolamine)", "value": 29.4, "unit": "%"}, {"measurement": "Mean Transfer Latency Time", "setting": "[3]; G5: 0.25 mg/kg i.v. qdx14, scopolamine 2.5 mg/kg i.p.", "value": 80.58, "unit": "s"}, {"measurement": "Mean Transfer Latency Time", "setting": "[3]; G5: 0.25 mg/kg i.v. qdx14, scopolamine 2.5 mg/kg i.p., listed as SEQ ID NO 1", "value": "80.58 ± 9.08", "unit": "s"}, {"measurement": "% increase in Transfer Latency Time", "setting": "[3]; G6: 0.125 mg/kg i.v. qdx14, compared with G2 (scopolamine)", "value": 24.9, "unit": "%"}, {"measurement": "Mean Transfer Latency Time", "setting": "[3]; G6: 0.125 mg/kg i.v. qdx14, scopolamine 2.5 mg/kg i.p.", "value": 75.81, "unit": "s"}, {"measurement": "Mean Transfer Latency Time", "setting": "[3]; G6: 0.125 mg/kg i.v. qdx14, scopolamine 2.5 mg/kg i.p., listed as SEQ ID NO 1", "value": "75.81 ± 7.75", "unit": "s"}, {"measurement": "% Protection in the formation of Neurites (w.r.t. MPP+)", "setting": "[4]; 0.001 μg/ml", "value": 54.7, "unit": "%"}, {"measurement": "Average No. of Neurites", "setting": "[4]; 0.001 μg/ml", "value": 27}, {"measurement": "% Protection in the formation of Neurites (w.r.t. MPP+)", "setting": "[4]; 0.01 μg/ml", "value": 47.2, "unit": "%"}, {"measurement": "Average No. of Neurites", "setting": "[4]; 0.01 μg/ml", "value": 26}, {"measurement": "% Protection in the formation of Neurites (w.r.t. MPP+)", "setting": "[4]; 0.1 μg/ml", "value": 18.9, "unit": "%"}, {"measurement": "Average No. of Neurites", "setting": "[4]; 0.1 μg/ml", "value": 21}, {"measurement": "% Protection in the formation of Neurites (w.r.t. MPP+)", "setting": "[4]; 5 μg/ml", "value": 34, "unit": "%"}, {"measurement": "Average No. of Neurites", "setting": "[4]; 5 μg/ml", "value": 24}]}
